Consider five molecules from paper PMC548358.

The target of one data set is T1, Trx-mMUTYH wild type (Mus musculus, UniProt Q99P21 1-515).
T1 sequence: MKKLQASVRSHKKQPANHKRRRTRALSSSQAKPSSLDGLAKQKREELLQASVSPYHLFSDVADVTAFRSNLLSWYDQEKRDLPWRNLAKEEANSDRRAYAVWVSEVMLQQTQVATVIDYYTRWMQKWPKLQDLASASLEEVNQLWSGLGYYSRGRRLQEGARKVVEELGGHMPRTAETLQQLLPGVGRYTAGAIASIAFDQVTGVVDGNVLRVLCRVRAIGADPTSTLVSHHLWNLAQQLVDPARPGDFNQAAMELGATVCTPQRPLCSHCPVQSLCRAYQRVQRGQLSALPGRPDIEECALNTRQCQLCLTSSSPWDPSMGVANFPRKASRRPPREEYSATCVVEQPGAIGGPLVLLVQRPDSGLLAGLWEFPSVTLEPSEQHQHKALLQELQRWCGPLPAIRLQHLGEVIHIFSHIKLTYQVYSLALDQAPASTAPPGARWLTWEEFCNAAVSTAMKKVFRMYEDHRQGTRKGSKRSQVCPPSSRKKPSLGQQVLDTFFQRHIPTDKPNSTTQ
The data set is described as follows: EMSA. For orientation: Mobility shift assays separate free from complexed probe on a gel.

Another data set has as its target T2, Trx-mMUTYH(D207N) (Mus musculus, UniProt Q99P21 1-515, D207N).
T2 sequence: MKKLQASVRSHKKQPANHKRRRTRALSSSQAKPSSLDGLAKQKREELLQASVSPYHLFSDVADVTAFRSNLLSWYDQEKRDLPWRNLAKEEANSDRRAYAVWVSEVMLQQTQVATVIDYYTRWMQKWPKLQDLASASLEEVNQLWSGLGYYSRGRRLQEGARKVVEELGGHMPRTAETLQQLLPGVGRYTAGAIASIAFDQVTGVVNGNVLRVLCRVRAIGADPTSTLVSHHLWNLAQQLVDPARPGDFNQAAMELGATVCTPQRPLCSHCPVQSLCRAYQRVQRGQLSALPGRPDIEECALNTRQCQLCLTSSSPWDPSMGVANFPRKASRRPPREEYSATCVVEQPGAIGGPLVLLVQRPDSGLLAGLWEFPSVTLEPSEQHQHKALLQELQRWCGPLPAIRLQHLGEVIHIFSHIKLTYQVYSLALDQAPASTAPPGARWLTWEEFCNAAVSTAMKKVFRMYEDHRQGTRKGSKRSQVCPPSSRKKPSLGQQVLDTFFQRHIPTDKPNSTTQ
Nature of the data set: EMSA.

B1: *A:GO (dsDNA)
DNA 1: AGCGGCCATCGATACCGTCAACCTCGAGGAATTCC
DNA 2: GGAATTCCTCGAGGTGGACGGTATCGATGGCCGCT
modifications: 8-oxoguanine at strand 2 position 16, opposite A20 of strand 1
Turning to B1, the binding result with Trx-mMUTYH wild type and with Trx-mMUTYH(D207N) was “binds” in each case.

B2: *AO:GO (dsDNA)
DNA 1: AGCGGCCATCGATACCGTCAACCTCGAGGAATTCC
DNA 2: GGAATTCCTCGAGGTGGACGGTATCGATGGCCGCT
modifications: 2-hydroxyadenine at strand 1 position 20; 8-oxoguanine at strand 2 position 16
Take B2: the binding result in the data set with Trx-mMUTYH wild type is recorded as “binds”.

B3: *A:G (dsDNA)
DNA 1: AGCGGCCATCGATACCGTCAACCTCGAGGAATTCC
DNA 2: GGAATTCCTCGAGGTGGACGGTATCGATGGCCGCT
Consider B3, for which the binding result with Trx-mMUTYH wild type and with Trx-mMUTYH(D207N) was “no binding” in each case.

B4: *AO:G (dsDNA)
DNA 1: AGCGGCCATCGATACCGTCAACCTCGAGGAATTCC
DNA 2: GGAATTCCTCGAGGTGGACGGTATCGATGGCCGCT
modifications: 2-hydroxyadenine at strand 1 position 20, opposite G16 of strand 2
Regarding B4, the binding result with Trx-mMUTYH wild type and with Trx-mMUTYH(D207N) was “no binding” throughout.

B5: *AO:T (dsDNA)
DNA 1: AGCGGCCATCGATACCGTCAACCTCGAGGAATTCC
DNA 2: GGAATTCCTCGAGGTTGACGGTATCGATGGCCGCT
modifications: 2-hydroxyadenine at strand 1 position 20, opposite T16 of strand 2
On to B5, for which the binding result with Trx-mMUTYH wild type and in the data set with Trx-mMUTYH(D207N) was “no binding” each time.
